“And” between values parts separate entries of the source, which are not always exact repeats. Equal entries are not always repeated.
Columns and labels:
[1] = molecular target: human insulin receptor β (human) (UniProt P06213); assay: cell-based or functional assay
[2] = molecular target: human GLP-1 receptor (human) (UniProt P43220); assay: cell-based or functional assay
[3] = system: mouse-derived 3T3-L1 cell line differentiated into adipocytes; assay: Glucose uptake test in 3T3-L1 cells differentiated into adipocytes (GOPOD residual glucose); type: cell-based; settings: 3T3-L1 adipocytes, 24 hours; read-out: Glucose uptake (Insulin) EC50
Experimental: First, for analyzing the titer of insulin, a glucose uptake (or lipid synthesis ability) test was conducted using the mouse-derived 3T3-L1 cell line differentiated into adipocytes. […] The 3T3-L1 cell line was suspended in the medium for differentiation (DMEM containing 10% FBS), inoculated into a 48-well plate to a concentration of 5×10^4 cells/well, and cultured at 37° C. for 48 hours. […] The mixtures was added to each well in an amount of 250 μL/well after removing the existing medium.
For the glucose uptake test, the cells terminally differentiated into adipocytes were washed once with serum-free DMEM medium and serum-free DMEM medium was added into each well in an amount of 250 μL to induce serum depletion for 4 hours. […] Each of the thus-prepared samples was added to the cells in an amount of 250 μL, respectively, and cultured in a 5% CO2 incubator at 37° C. for 24 hours. For the measurement of the residual amount of glucose in the medium upon completion of cultivation, 200 μL of the medium was collected, diluted 5-fold with D-PBS, respectively, and subjected to GOPOD analysis (GOPOD Assay Kit, Megazyme, Cat. No. K-GLUC). The residual glucose concentration in the medium was calculated based on the absorbance of the standard glucose solution, and EC50 values for each of the samples with respect to glucose uptake ability was calculated and the result is shown in Table 9 below.

Substance | IR-β phosphorylation EC50 [1] | cAMP assay EC50 [2] | EC50 [3]
Immunoglobulin Fc | > 1000 nM | > 100 nM | 
human insulin |  |  | 9 nM and 11 nM

Reference: patent US20180271995A1, “A PROTEIN CONJUGATE COMPRISING MULTIPLE PHYSIOLOGICALLY ACTIVE POLYPEPTIDES AND AN IMMUNOGLOBULIN FC REGION” (HANMI PHARM. CO., LTD., priority 2015, published 2018)
